Results on 6 molecules are retold here after paper PMC10326835 (microLife, 2023).

One may read the Km as the substrate concentration at which the rate is half of its maximum.

In one data set the target is SpeF (Escherichia coli, UniProt P24169). Description: DRaCALA with […]-ppGpp in overexpression lysate. The data set is classed as cell-based.
In the next data set the target is ObgE (Escherichia coli, UniProt P42641). Description: DRaCALA with […]-ppGpp in overexpression lysate. The data set is classed as cell-based.
The next data set concerns the target T1, RelA (Escherichia coli, UniProt P0AG20).
T1 sequence (P0AG20 1-744): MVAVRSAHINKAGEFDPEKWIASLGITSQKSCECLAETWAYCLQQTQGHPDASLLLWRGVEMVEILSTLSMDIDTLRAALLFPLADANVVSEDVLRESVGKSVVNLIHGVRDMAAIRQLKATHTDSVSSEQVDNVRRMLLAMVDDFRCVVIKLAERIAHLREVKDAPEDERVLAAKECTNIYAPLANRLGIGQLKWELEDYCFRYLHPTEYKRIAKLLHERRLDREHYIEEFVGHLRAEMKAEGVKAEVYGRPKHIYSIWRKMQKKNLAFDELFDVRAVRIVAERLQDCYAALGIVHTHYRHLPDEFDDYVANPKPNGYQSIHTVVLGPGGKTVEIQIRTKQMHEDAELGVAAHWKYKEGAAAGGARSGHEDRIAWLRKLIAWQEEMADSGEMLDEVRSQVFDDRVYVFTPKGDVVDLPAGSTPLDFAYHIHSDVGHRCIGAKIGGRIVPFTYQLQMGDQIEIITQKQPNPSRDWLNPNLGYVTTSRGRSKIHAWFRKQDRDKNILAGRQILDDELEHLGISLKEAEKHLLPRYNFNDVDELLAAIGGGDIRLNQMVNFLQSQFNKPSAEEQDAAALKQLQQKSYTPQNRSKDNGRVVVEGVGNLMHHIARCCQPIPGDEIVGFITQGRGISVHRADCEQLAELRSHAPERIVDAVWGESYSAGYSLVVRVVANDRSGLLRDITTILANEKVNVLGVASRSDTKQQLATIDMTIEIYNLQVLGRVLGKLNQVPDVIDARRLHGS
Put plainly: DRaCALA with […]-ppGpp in overexpression lysate. In kind it is cell-based.

Data set [1] addresses T2, ^strepLpxA (E. coli, UniProt P0A722 1-262).
T2 sequence: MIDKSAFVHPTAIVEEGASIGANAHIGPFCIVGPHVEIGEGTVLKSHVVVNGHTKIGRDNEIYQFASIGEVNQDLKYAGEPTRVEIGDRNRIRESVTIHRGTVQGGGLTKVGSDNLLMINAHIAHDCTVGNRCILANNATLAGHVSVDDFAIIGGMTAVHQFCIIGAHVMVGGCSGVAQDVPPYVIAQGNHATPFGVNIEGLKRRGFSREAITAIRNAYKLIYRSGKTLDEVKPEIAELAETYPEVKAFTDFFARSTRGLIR
Description: MST.

The target of data set [2] is T2, ^strepLpxA. Description: MST. This is another data set of the same source.
Substrate in the data set “purified protein”: CC(=O)N[C@H]1[C@@H](OP(=O)(O)OP(=O)(O)OC[C@H]2O[C@@H](n3ccc(=O)[nH]c3=O)[C@H](O)[C@@H]2O)O[C@H](CO)[C@@H](O)[C@@H]1O
Put plainly: purified protein.

Read-outs that look alike come from different tables or passages of the source.

Sequence of ObgE (P42641 whole entry): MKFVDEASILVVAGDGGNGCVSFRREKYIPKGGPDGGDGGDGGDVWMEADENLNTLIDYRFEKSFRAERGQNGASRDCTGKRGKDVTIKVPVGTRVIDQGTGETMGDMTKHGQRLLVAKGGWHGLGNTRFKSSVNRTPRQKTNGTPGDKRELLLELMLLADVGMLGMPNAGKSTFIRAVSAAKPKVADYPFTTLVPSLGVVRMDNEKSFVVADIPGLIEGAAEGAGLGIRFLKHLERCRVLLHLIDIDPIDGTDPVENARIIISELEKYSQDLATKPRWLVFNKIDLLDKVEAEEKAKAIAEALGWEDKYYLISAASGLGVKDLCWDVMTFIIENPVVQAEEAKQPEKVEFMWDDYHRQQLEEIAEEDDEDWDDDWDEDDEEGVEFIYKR
Sequence of SpeF (P24169 whole entry): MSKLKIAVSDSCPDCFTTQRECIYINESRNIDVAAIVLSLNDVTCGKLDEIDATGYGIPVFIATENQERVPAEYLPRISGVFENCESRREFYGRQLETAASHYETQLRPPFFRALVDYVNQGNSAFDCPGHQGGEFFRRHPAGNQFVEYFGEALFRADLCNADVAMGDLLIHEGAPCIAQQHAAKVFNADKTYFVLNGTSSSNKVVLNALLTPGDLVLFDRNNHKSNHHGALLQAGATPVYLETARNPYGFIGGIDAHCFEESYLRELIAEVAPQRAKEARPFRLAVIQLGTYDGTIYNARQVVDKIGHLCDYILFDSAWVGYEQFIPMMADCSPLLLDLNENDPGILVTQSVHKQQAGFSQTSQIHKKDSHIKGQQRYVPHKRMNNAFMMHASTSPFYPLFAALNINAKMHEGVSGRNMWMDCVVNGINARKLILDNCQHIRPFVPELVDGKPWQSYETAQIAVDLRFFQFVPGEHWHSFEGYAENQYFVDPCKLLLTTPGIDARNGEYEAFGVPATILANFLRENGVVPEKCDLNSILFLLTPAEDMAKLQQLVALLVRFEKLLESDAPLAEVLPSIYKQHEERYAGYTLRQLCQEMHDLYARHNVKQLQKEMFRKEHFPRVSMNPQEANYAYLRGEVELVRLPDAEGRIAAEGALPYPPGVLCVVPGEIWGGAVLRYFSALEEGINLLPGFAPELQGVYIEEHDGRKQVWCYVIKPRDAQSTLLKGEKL

For the molecule `Nc1nc2c(ncn2[C@@H]2O[C@H](COP(=O)(O)OP(=O)(O)O)[C@@H](OP(=O)(O)OP(=O)(O)O)[C@H]2O)c(=O)[nH]1` [ppGpp], the results for the “% relative to RelA” value at SpeF and on ObgE were 73 ± 12 % relative to RelA and 86 ± 12 % relative to RelA, respectively. For the same molecule, the “% (reference binding)” value on RelA is 100 % (reference binding).

B1: ^His-SUMORnhA (enzyme, E. coli, UniProt P0A7Y4 1-155, looked up)
chain: MLKQVEIFTDGSCLGNPGPGGYGAILRYRGREKTFSAGYTRTTNNRMELMAAIVALEALKEHCEVILSTDSQYVRQGITQWIHNWKKRGWKTADKKPVKNVDLWQRLDAALGQHQIKWEWVKGHAGHPENERCDELARAAAMNPTLEDTGYQVEV
modifications: fluorescently labeled with the His-Tag Labeling Kit RED-tris-NTA
For B1, the binding result with ^strepLpxA [1] was “binds”.

B2: ^HisRnhA (enzyme, E. coli, UniProt P0A7Y4 1-155, looked up)
chain: B1 chain
modifications: fluorescently labeled with the His-Tag Labeling Kit RED-tris-NTA
As for B2, the binding result with ^strepLpxA [2] is listed as “binds”.

B3: ^HisRnhB (enzyme, E. coli, UniProt P10442 1-198, looked up)
chain: MIEFVYPHTQLVAGVDEVGRGPLVGAVVTAAVILDPARPIAGLNDSKKLSEKRRLALYEEIKEKALSWSLGRAEPHEIDELNILHATMLAMQRAVAGLHIAPEYVLIDGNRCPKLPMPAMAVVKGDSRVPEISAASILAKVTRDAEMAALDIVFPQYGFAQHKGYPTAFHLEKLAEHGATEHHRRSFGPVKRALGLAS
modifications: fluorescently labeled with the His-Tag Labeling Kit RED-tris-NTA
For the molecule B3, in the data set with ^strepLpxA [2], the binding result was “binds”.

B4: ^His-SUMORnhB (enzyme, E. coli, UniProt P10442 1-198, looked up)
chain: B3 chain
modifications: fluorescently labeled with the His-Tag Labeling Kit RED-tris-NTA
Take B4: the binding result in the data set with ^strepLpxA [1] is given as “binds”.

B5: LpxA (Escherichia coli K-12) (protein)
chain: T2 sequence
On to B5, for which the Km in the data set “purified protein” is 494 µM.
